Results: patent publication US20140087995A1 (published 2014)
Numbered stars: 1 amine (or outer) side, 2 acyl side, 3 side chain; on linkers, the order of the positions; unused ones are H or OH. Bridge positions count the residues as written; N and C are the ends. Side chains are listed from the residue outwards. Ends that are not written are not given here. * marks the point of attachment. C20 diacid = O=C(O)CCCCCCCCCCCCCCCCCCC(=O)*; γGlu = O=C(O)[C@H](CCC(=O)[*:2])N[*:1]; AEEA = NCCOCCOCC(=O)O

T1: human calcitonin receptor (human, UniProt P30988 25-474)
T1 construct: whole, on cells; Used as cell membranes; also called hCTR; hCT
T1 sequence (looked up): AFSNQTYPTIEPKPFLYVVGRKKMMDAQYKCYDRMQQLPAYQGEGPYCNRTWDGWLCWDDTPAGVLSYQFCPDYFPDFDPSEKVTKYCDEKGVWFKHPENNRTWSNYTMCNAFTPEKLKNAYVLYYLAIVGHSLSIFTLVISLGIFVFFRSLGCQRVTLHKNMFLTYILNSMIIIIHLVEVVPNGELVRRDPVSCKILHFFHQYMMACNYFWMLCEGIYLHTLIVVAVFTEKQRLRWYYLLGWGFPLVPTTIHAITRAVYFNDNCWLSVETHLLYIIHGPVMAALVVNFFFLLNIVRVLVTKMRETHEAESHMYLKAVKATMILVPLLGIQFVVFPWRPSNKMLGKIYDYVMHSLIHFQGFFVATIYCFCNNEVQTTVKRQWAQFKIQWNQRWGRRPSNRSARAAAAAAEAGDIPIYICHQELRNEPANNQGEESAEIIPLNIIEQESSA


Assays:
[1] = target: T1, human calcitonin receptor; assay: ratio of hCTR IC50 to hAmylin-R IC50 (reference: human amylin receptor)
Experimental: The resulting pellet was resuspended, homogenized and centrifuged (20.000 rpm, 15 min) in a buffer containing 20 mM Na-HEPES and 0.1 mM EDTA (pH 7.4, buffer 2). The resulting pellet was resuspended in buffer 2 and protein concentration was measured (BCA protein Assay, Pierce). The homogenate was kept cold during the whole procedure. The membranes were kept at −80° C. until use. The assay was performed in a 384 well Optiplate (PerkinElmer) in a total volume of 40 ul. Membranes were mixed with SPA beads. Final concentration of membranes 35 ng/μL final and SPA beads was 0.05 mg/well. Test-compounds were dissolved in DMSO and further diluted in assay buffer (50 mM Hepes, pH 7.4, 1 mM CaCl2, 5 mM MgCl₂, 0.1% OA and 0.02% Tween20). […] The final mixture was incubated with shaking at 400 rpm for 120 min at 25° C. prior to centrifugation (1500 rpm, 10 min). Samples were analyzed on TopCounter™ (Packard). The IC₅₀ was calculated using (one site binding competition analysis) GraphPad Prism5 as a measure of receptor affinity.
Membranes were prepared in the following way; the cells were rinsed with PBS and incubated with Versene for approximately 5 min before harvesting. The cells were flushed with PBS and the cell-suspension was centrifuged for 5 min at 1000 rpm. Cells were homogenized (Ultrathurrax) in a buffer containing 20 mM Na-HEPES and 10 mM EDTA (pH 7.4) and centrifuged at 20.000 rpm for 15 min. The resulting pellet was resuspended, homogenized and centrifuged (20.000 rpm, 15 min) in a buffer containing 20 mM Na-HEPES and 0.1 mM EDTA (pH 7.4, buffer 2). The resulting pellet was resuspended in buffer 2 and protein concentration was measured (BCA protein Assay, Pierce). The homogenate was kept cold during the whole procedure. The membranes were kept at −80° C. until use. Assay was performed in a 384 well Optiplate (PerkinElmer) in a total volume of 40 ul. Membranes were mixed with SPA beads.

[2] = target: T1, human calcitonin receptor; assay: SPA competition on BHK cell membranes, 125I-calcitonin as radioligand (Assay VII)
Experimental: Membranes were prepared in the following way; the cells were rinsed with PBS and incubated with Versene for approximately 5 min before harvesting. The cells were flushed with PBS and the cell-suspension was centrifuged for 5 min at 1000 rpm. Cells were homogenized (Ultrathurrax) in a buffer containing 20 mM Na-HEPES and 10 mM EDTA (pH 7.4) and centrifuged at 20.000 rpm for 15 min. The resulting pellet was resuspended, homogenized and centrifuged (20.000 rpm, 15 min) in a buffer containing 20 mM Na-HEPES and 0.1 mM EDTA (pH 7.4, buffer 2). The resulting pellet was resuspended in buffer 2 and protein concentration was measured (BCA protein Assay, Pierce). The homogenate was kept cold during the whole procedure. The membranes were kept at −80° C. until use. Assay was performed in a 384 well Optiplate (PerkinElmer) in a total volume of 40 ul. Membranes were mixed with SPA beads. Final concentration of membranes 35 ng/μL final and Final concentration of SPA beads was 0.05 mg/well. Test-compounds were dissolved in DMSO and further diluted in assay buffer (50 mM Hepes, pH 7.4, 1 mM CaCl2, 5 mM MgCl₂, 0.1% OA and 0.02% Tween20). […] The final mixture was incubated for 120 min with shaking at 400 rpm at 25° C. prior to centrifugation (1500 rpm, 10 min). Samples were analyzed on TopCounter™ (Packard). The […] was calculated using (one site binding competition analysis) GraphPad Prism5 as a measure of receptor affinity.

Binder | Ratio hCT/hAmylin binding [1] | IC50 [2] [nM]
K([AEEA-γGlu-C20 diacid])CNTATCATQRLANFLRHSSPNFGAIPSSTNVGHNTY-NH2 (disulfide 2-7; N-terminus assumed; SMILES CC[C@H](C)[C@H](NC(=O)[C@H](C)NC(=O)CNC(=O)[C@H](Cc1ccccc1)NC(=O)[C@H](CC(N)=O)NC(=O)[C@@H]1CCCN1C(=O)[C@H](CO)NC(=O)[C@H](CO)NC(=O)[C@H](Cc1c[nH]cn1)NC(=O)[C@H](CCCNC(=N)N)NC(=O)[C@H](CC(C)C)NC(=O)[C@H](Cc1ccccc1)NC(=O)[C@H](CC(N)=O)NC(=O)[C@H](C)NC(=O)[C@H](CC(C)C)NC(=O)[C@H](CCCNC(=N)N)NC(=O)[C@H](CCC(N)=O)NC(=O)[C@@H](NC(=O)[C@H](C)NC(=O)[C@@H]1CSSC[C@H](NC(=O)[C@@H](N)CCCCNC(=O)COCCOCCNC(=O)CC[C@H](NC(=O)CCCCCCCCCCCCCCCCCCC(=O)O)C(=O)O)C(=O)N[C@@H](CC(N)=O)C(=O)N[C@@H]([C@@H](C)O)C(=O)N[C@@H](C)C(=O)N[C@@H]([C@@H](C)O)C(=O)N1)[C@@H](C)O)C(=O)N1CCC[C@H]1C(=O)N[C@@H](CO)C(=O)N[C@@H](CO)C(=O)N[C@H](C(=O)N[C@@H](CC(N)=O)C(=O)N[C@H](C(=O)NCC(=O)N[C@@H](Cc1c[nH]cn1)C(=O)N[C@@H](CC(N)=O)C(=O)N[C@H](C(=O)N[C@@H](Cc1ccc(O)cc1)C(N)=O)[C@@H](C)O)C(C)C)[C@@H](C)O, also called compound 76) | 80 | 17.2
K([AEEA-AEEA-γGlu-C20 diacid])CNTATCATQRLANFLRHSSPNFGAIPSSTPVGSNTY-NH2 (disulfide 2-7; N-terminus assumed; SMILES CC[C@H](C)[C@H](NC(=O)[C@H](C)NC(=O)CNC(=O)[C@H](Cc1ccccc1)NC(=O)[C@H](CC(N)=O)NC(=O)[C@@H]1CCCN1C(=O)[C@H](CO)NC(=O)[C@H](CO)NC(=O)[C@H](Cc1c[nH]cn1)NC(=O)[C@H](CCCNC(=N)N)NC(=O)[C@H](CC(C)C)NC(=O)[C@H](Cc1ccccc1)NC(=O)[C@H](CC(N)=O)NC(=O)[C@H](C)NC(=O)[C@H](CC(C)C)NC(=O)[C@H](CCCNC(=N)N)NC(=O)[C@H](CCC(N)=O)NC(=O)[C@@H](NC(=O)[C@H](C)NC(=O)[C@@H]1CSSC[C@H](NC(=O)[C@@H](N)CCCCNC(=O)COCCOCCNC(=O)COCCOCCNC(=O)CC[C@H](NC(=O)CCCCCCCCCCCCCCCCCCC(=O)O)C(=O)O)C(=O)N[C@@H](CC(N)=O)C(=O)N[C@@H]([C@@H](C)O)C(=O)N[C@@H](C)C(=O)N[C@@H]([C@@H](C)O)C(=O)N1)[C@@H](C)O)C(=O)N1CCC[C@H]1C(=O)N[C@@H](CO)C(=O)N[C@@H](CO)C(=O)N[C@H](C(=O)N1CCC[C@H]1C(=O)N[C@H](C(=O)NCC(=O)N[C@@H](CO)C(=O)N[C@@H](CC(N)=O)C(=O)N[C@H](C(=O)N[C@@H](Cc1ccc(O)cc1)C(N)=O)[C@@H](C)O)C(C)C)[C@@H](C)O, also called compound 96) | 79.6 | 13.2

The next lines start with the values.

Ratio hCT/hAmylin binding [1] | IC50 [2] [nM] | Binder
42.2 | 2.57 | K([AEEA-C20 diacid])CNTATCATQRLAHFLRHSSPNFGAIPSSTNVGSNTY-NH2 (disulfide 2-7; N-terminus assumed; SMILES CC[C@H](C)[C@H](NC(=O)[C@H](C)NC(=O)CNC(=O)[C@H](Cc1ccccc1)NC(=O)[C@H](CC(N)=O)NC(=O)[C@@H]1CCCN1C(=O)[C@H](CO)NC(=O)[C@H](CO)NC(=O)[C@H](Cc1c[nH]cn1)NC(=O)[C@H](CCCNC(=N)N)NC(=O)[C@H](CC(C)C)NC(=O)[C@H](Cc1ccccc1)NC(=O)[C@H](Cc1c[nH]cn1)NC(=O)[C@H](C)NC(=O)[C@H](CC(C)C)NC(=O)[C@H](CCCNC(=N)N)NC(=O)[C@H](CCC(N)=O)NC(=O)[C@@H](NC(=O)[C@H](C)NC(=O)[C@@H]1CSSC[C@H](NC(=O)[C@@H](N)CCCCNC(=O)COCCOCCNC(=O)CCCCCCCCCCCCCCCCCCC(=O)O)C(=O)N[C@@H](CC(N)=O)C(=O)N[C@@H]([C@@H](C)O)C(=O)N[C@@H](C)C(=O)N[C@@H]([C@@H](C)O)C(=O)N1)[C@@H](C)O)C(=O)N1CCC[C@H]1C(=O)N[C@@H](CO)C(=O)N[C@@H](CO)C(=O)N[C@H](C(=O)N[C@@H](CC(N)=O)C(=O)N[C@H](C(=O)NCC(=O)N[C@@H](CO)C(=O)N[C@@H](CC(N)=O)C(=O)N[C@H](C(=O)N[C@@H](Cc1ccc(O)cc1)C(N)=O)[C@@H](C)O)C(C)C)[C@@H](C)O, also called compound 90) [N^ε1-[2-[2-[2-(19-carboxynonadecanoylamino)ethoxy]ethoxy]acetyl]-[His14,Arg17,Pro21,Pro27]-h-amylin]
74.1 | 6.74 | K([AEEA-AEEA-γGlu-C20 diacid])CNTATCATQRLANFLRHSSPNFGAIPSSTNVGPNTY-NH2 (disulfide 2-7; N-terminus assumed; SMILES CC[C@H](C)[C@H](NC(=O)[C@H](C)NC(=O)CNC(=O)[C@H](Cc1ccccc1)NC(=O)[C@H](CC(N)=O)NC(=O)[C@@H]1CCCN1C(=O)[C@H](CO)NC(=O)[C@H](CO)NC(=O)[C@H](Cc1c[nH]cn1)NC(=O)[C@H](CCCNC(=N)N)NC(=O)[C@H](CC(C)C)NC(=O)[C@H](Cc1ccccc1)NC(=O)[C@H](CC(N)=O)NC(=O)[C@H](C)NC(=O)[C@H](CC(C)C)NC(=O)[C@H](CCCNC(=N)N)NC(=O)[C@H](CCC(N)=O)NC(=O)[C@@H](NC(=O)[C@H](C)NC(=O)[C@@H]1CSSC[C@H](NC(=O)[C@@H](N)CCCCNC(=O)COCCOCCNC(=O)COCCOCCNC(=O)CC[C@H](NC(=O)CCCCCCCCCCCCCCCCCCC(=O)O)C(=O)O)C(=O)N[C@@H](CC(N)=O)C(=O)N[C@@H]([C@@H](C)O)C(=O)N[C@@H](C)C(=O)N[C@@H]([C@@H](C)O)C(=O)N1)[C@@H](C)O)C(=O)N1CCC[C@H]1C(=O)N[C@@H](CO)C(=O)N[C@@H](CO)C(=O)N[C@H](C(=O)N[C@@H](CC(N)=O)C(=O)N[C@H](C(=O)NCC(=O)N1CCC[C@H]1C(=O)N[C@@H](CC(N)=O)C(=O)N[C@H](C(=O)N[C@@H](Cc1ccc(O)cc1)C(N)=O)[C@@H](C)O)C(C)C)[C@@H](C)O, also called compound 98)
